# Measurements as given in PMC8155045.
# Biological target: mCherry-YC (37 kDa isoform)
# Experiment: FRET or BRET; FLIM-FRET (phasor analysis) in nuclei of live HeLa cells, eGFP donor and mCherry acceptor, all three NF-Y subunits transfected (third one untagged), 24 h after transfection, 37 degrees, 5% CO2
binder,measurement,value
EGFP-YB (natural protein) MTMDGDSSTTDASQLGISADYIGGSHYVIQPHDDTEDSMNDHEDTNGSKESFREQDIYLPIANVARIMKNAIPQTGKIAKDAKECVQECVSEFISFITSEASERCHQEKRKTINGEDILFAMSTLGFDSYVEPLKLYLQKFREAMKGEKGIGGAVTATDGLSEELTEEAFTNQLPAGLITTDGQQQNVMVYTTSYQQISGVQQIQFS,FRET efficiency,16%
same,fraction of FRET (% pixels),38.2 % pixels
